Source: paper PMC7949081

What follows are substances tested against Zn2+ (assay: Zincon assay). Conditions: purified Vif complex denatured and deproteinated; metal ions measured in supernatant; parent: est. 1.3; read off a plot.
In the case of “maedi–visna virus (MVV) Vif, WT, residues 1-230, N-terminal 6xHis tagged (from UniProt P69715) C135S”, the other: Zn2+:Protein Ratio is reported as 0.09.
Work on “maedi–visna virus (MVV) Vif, WT, residues 1-230, N-terminal 6xHis tagged (from UniProt P69715) C207S” yielded an other: Zn2+:Protein Ratio of 0.93.
“maedi–visna virus (MVV) Vif, WT, residues 1-230, N-terminal 6xHis tagged (from UniProt P69715) H129N” gave an other: Zn2+:Protein Ratio of 0.92.
In the case of “maedi–visna virus (MVV) Vif, WT, residues 1-230, N-terminal 6xHis tagged (from UniProt P69715) H186N”, the other: Zn2+:Protein Ratio is reported as 1.1.
Work on “maedi–visna virus (MVV) Vif, WT, residues 1-230, N-terminal 6xHis tagged (from UniProt P69715) H181N” yielded an other: Zn2+:Protein Ratio of 1.2.
Work on “maedi–visna virus (MVV) Vif, WT, residues 1-230, N-terminal 6xHis tagged (from UniProt P69715) H152N” yielded an other: Zn2+:Protein Ratio of 0.97.
“maedi–visna virus (MVV) Vif, WT, residues 1-230, N-terminal 6xHis tagged (from UniProt P69715) H7N” gave an other: Zn2+:Protein Ratio of 1.2.
Substance “maedi–visna virus (MVV) Vif, WT, residues 1-230, N-terminal 6xHis tagged (from UniProt P69715) C137S” has an other: Zn2+:Protein Ratio of 0.07.
“maedi–visna virus (MVV) Vif, WT, residues 1-230, N-terminal 6xHis tagged (from UniProt P69715) C157S” was tested, and the other: Zn2+:Protein Ratio was 0.2.
For “maedi–visna virus (MVV) Vif, WT, residues 1-230, N-terminal 6xHis tagged (from UniProt P69715) C222S”, the other: Zn2+:Protein Ratio was 0.77.
“maedi–visna virus (MVV) Vif, WT, residues 1-230, N-terminal 6xHis tagged (from UniProt P69715) C160S” showed an other: Zn2+:Protein Ratio of 0.17.
